The values below come from US20110286916A1 (published 2011).

The target in the assay is T1, human full-length Notch1 with C-terminal FLAG tag, stably expressed on 293 FlpIn (TREx) cells (human, UniProt P46531 19-2555).
T1 construct: tetracycline/doxycycline-induced expression from pcDNA5/FRT/TO-HN1+FLAG; also called hN1; 293_N1
The assay is described as follows: FACS, phage scFv. (In general: Flow cytometry measures light scatter and fluorescence of single cells or particles in a stream.)

B1: N1wc158 (scFv, V domains shown)
VH: EVQLVQSGAEVKKPGASVKVSCKASGYNFTGYYMHWVRQAPGQGLEWMGWINPNSGGTNYAQKFQGRVTMTRDTSISTAYMELSRLRSDDTAVYYCATDSFDYWGRGTLVTVSS
VL: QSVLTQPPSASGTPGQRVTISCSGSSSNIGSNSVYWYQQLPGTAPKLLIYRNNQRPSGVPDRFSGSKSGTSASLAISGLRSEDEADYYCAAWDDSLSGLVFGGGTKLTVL
notes: phage scFv
B1: the binding result is on record as “binds”.

B2: N1wc103 (scFv, V domains shown)
VH: QVQLQQSGAEVKKPGASVKVSCKASGYNFTGYYMHWVRQAPGQGLEWMGWINPNSGGTNYAQKFQGRVTMTRDTSISTAYVELSRLRSDDTAVYYCATDSFDYWGRGTLVTVSS
VL: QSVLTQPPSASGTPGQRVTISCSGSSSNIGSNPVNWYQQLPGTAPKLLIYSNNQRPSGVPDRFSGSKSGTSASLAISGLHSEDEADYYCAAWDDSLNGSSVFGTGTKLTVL
notes: phage scFv
Take B2: the binding result is “binds”.

B3: hN1S3-126 (scFv, V domains shown)
VH: EVQLVQSGAEVKKPGASVKVSCKASGYNFTGYYMHWVRQAPGQGLEWMGWINPNSGGTNYAQKFQGRVTMTRDTSISTAYMELSRLRSDDTAVYYCATDSFDYWGQGTLVTVSS
VL: SYVLTQPPSASGAPGQRVTISCSGSISNIGDNTVNWYQHLPRTAPKLVIYSDVQRPSGVPERFSGSKSGTSASLVISGLQAEDEADYYCASWDDSLDGVFFGGGTKLTVL
notes: phage scFv
For B3, the binding result was “binds”.

B4: N1wc110 (scFv, V domains shown)
VH: EVQLVQSGAEVKKPGASVKVSCKASGYNFTGYYMHWVRQAPGQGLEWMGWINPNSGGTNYAQKFQGRVTMTRDTSISTAYMELSRLRSDDTAVYYCATDSFDYWGQGTMVTVSS
VL: QSVVTQPPSASGSPGQRVTIACSGSSSNIGSNTVNWYQHVPGTAPKLLIYNNNQRPSGVQDRFSGSKSDTSASLAISGLQAEDEAVYYCATWDDSLIGLAFGGGTKLTVL
notes: phage scFv
Regarding B4, the binding result was “binds”.

B5: hN1S3-113 (scFv, V domains shown)
VH: EVQLVQSGAEVKKPGASVKVSCKASGYNFTGYYMHWVRQAPGQGLEWMGWINPNSGGTNYAQKFQGRVTMTRDTSISTAYMELSRLRSDDTAVYYCATDSFDYWGRGTLVTVSS
VL: SYVLTQPPSASGTPGQRVTISCSGSSPNIGSNTVNWYQQLPGTAPKLLIYTNNQRPSGVPDRFSGSKSATSASLAISGLQFDDEADYFCAAWDDSLLGVVFGGGTKVTVL
notes: phage scFv
B5: the binding result is on record as “binds”.

B6: hN1S3-050 (scFv, V domains shown)
VH: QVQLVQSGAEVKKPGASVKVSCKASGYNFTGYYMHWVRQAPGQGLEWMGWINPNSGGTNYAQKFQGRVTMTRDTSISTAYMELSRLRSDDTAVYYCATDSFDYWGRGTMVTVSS
VL: LPVLTQPPSASGTPGQRVTISCSGRSSNIGSNFVYWYQQLPGTAPKLLIYRNNQRPSGVPDRFSGSKSGTSASLAISGLRSEDEADYYCATWDDNLSGVVFGGGTKLTVL
notes: phage scFv
As for B6, the binding result is reported as “binds”.

B7: hN1S3-010 (scFv, V domains shown)
VH: EVQLVQSGAEVKKPGASVKVSCKASGYNFTGYYMHWVRQAPGQGLEWMGWINPNSGGTNYAQKFQGRVIMTRDTSISTAYMELSRLTSDDTAVYYCATDSFDYWGRGTMVTVSS
VL: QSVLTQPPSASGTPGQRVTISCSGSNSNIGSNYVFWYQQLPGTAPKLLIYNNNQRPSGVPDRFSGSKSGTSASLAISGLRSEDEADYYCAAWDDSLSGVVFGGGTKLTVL
notes: phage scFv
In the case of B7, the binding result is “binds”.

B8: hN1S3-174 (scFv, V domains shown)
VH: EVQLVQSGAEVKKPGASVKVSCKASGYNFTGYYMHWVRQAPGQGLEWMGWINPNSGGTNYAQKFQGRVTMTRDTSISTAYMELSRLRSDDTAVYYCATDSFDYWGQGTTVTVSS
VL: QSVLTQPPSVSGAPGQRITISCTGSSSNIGAGYDVHWYQQLPGTAPKLLIYGNSYRPSGVPDRFSGSKSGTSASLAITGLQAEDEADYYCQSYDSSLTGSIFGGGTKLTVL
notes: phage scFv
Take B8: the binding result is recorded as “binds”.

B9: N1wc140 (scFv, V domains shown)
VH: QVQLQQSGAEVKKPGSSVKVSCRASGGTFSNYAISWVRQAPGQGLEWMGRIIPIFGGAHYAQKLQGRVSITADESTSTAHMELSSLRSEDAAVYYCASGAYYDVMGNYPYSGMDVWGRGTLVTVSS
VL: SYVLTQPPSVSVSPGQTAKITCGGDKIETKSVHWYQQKPGQAPVLVIYEDTKRPSGISERLSGSSAGTVATLTITGAQVDDEADYFCYSTDATGTERVFGGGTKLTVL
notes: phage scFv
With B9, the binding result was “binds”.

B10: N1wc106 (scFv, V domains shown)
VH: QVQLVQSGAEVKRPGASVNLSCKASGYSFSRYYIHWVRQAPGQGLELMGRINPGGGTTTYAQKFQGRVTLSRDTSTNTIFMELNGLTSEDTAMYYCARSNYDILAGYGPDAFDFWGRGTLVTVSS
VL: QAVLTQPSSVSGAPGQRVTISCTGSSSNIGADNDVHWYQKFPGTAPKLLIFSNNNRPSGVPDRFSGSKSGTSASLAITGLQADDEADYYCQSYDSGLTRELFGGGTKLTVL
notes: phage scFv
Take B10: the binding result is recorded as “binds”.

B11: N1wc142 (scFv, V domains shown)
VH: EVQLVQSGAEVKKPGASVNLSCKASGYSFSRYYIHWVRQAPGQGLELMGRINPGGGTTTYAQKFQGRVTLSRDTSTNTIFMELNGLTSEDTAMYYCARSNYDILAGYGPDAFDFWGRGTMVTVSS
VL: QSVLTQPPSVSGAPGQRVTISCIGSNSNIGAGHDVHWYQQFPGTAPKLLIYDNTNRPSGVPDRFSGSKSGTSVSLAITGLQAEDEADYYCQSYDSSLGEVFGGGTKLTVL
notes: phage scFv
As to B11, the binding result was “binds”.

B12: N1wc104 (scFv, V domains shown)
VH: QVQLQESGPGLVKPSGTLSLTCAVSGVSLATNNWWLWVRQSPGKGLEWIGEIYHSGYTNYNPSLKSRVTISVDKSSNQLSLDLRSITAADTAVYYCARRYCDNGVCYPFDHWGQGTMVTVSS
VL: SYVLTQPPSVSEAPRQTVTISCSGNSFNIGRYPVNWYQQLPGKAPKLLIYYNNLRFSGVSDRFSGSKSGTSASLAIRDLLSEDEADYYCSTWDDTLKGWVFGGGTKLTVL
notes: phage scFv
Turning to B12, the binding result is listed as “binds”.

B13: hN1S3-052 (scFv, V domains shown)
VH: QVQLVQSGAEVKKPGASVRISCKTSGFTFTSYFIHWVRQAPGQRPEWMGVINPSRGNADYAPRFRGRVTMTRDKSTHTVYMDLKSLRSDDAAIYYCARDRLGGLLDYYDSSDSSKNFDAFDFWGQGTLVTVSS
VL: QAVLTQPSLASGTPGQRVTISCSGGSSNIGRHTVNWYQQLPGAAPKLLMHSSDQRPSGVPDRFSGSKSGTSASLAISGLQSEDEADYYCAAWDASLKNWVFGGGTKLTVL
notes: phage scFv
With B13, the binding result is listed as “binds”.

B14: hN1S3-067 (scFv, V domains shown)
VH: EVQLVQSGAEVKKPGASVRISCKTSGFTFTSYFIHWVRQAPGQRPEWMGVINPSRGNADYAPRFRGRVTMTRDKSTHTVYMDLKSLRSDDAAIYYCARDRLGGLLDYYDSSDSSKNFDAFDFWGQGTLVTVSS
VL: NFMLTQPHSVSESPGKTVIISCTRSSGSIASNYVQWLQQRPGSSPTTVIYDDNRRPSGVPDRFSGSIDGSSNSASLTISGLKTEDEADYYCQSYDRFDHVVFGGGTKLTVL
notes: phage scFv
As for B14, the binding result is recorded as “binds”.

B15: hN1S3-073 (scFv, V domains shown)
VH: QVQLVQSGAEVKKPGASVRISCKTSGFTFTSYFIHWVRQAPGQRPEWMGVINPSRGNADYAPRFRGRVTMTRDKSTHTVYMDLKSLRSDDAAIYYCARDRLGGLLDYYDSSDSSKNFDAFDFWGQGTLVTVSS
VL: DIQMTQSPSSLSAFVGDRVTITCRASQGINNYLAWFQQKPGKAPKSLIYAASTLRSGVPPRFSGSGSGTDFTLTISSLQPEDFATYYCQQYDSYPHTFGQGTRLEIK
notes: phage scFv
B15: the binding result was “binds”.

B16: N1wc137 (scFv, V domains shown)
VH: QVQLVQSGAEVKKPGASVKVSCKASGYTFTNYGLSWVRQAPGQGLEWMGWISGYNDNTSYAQKFQDRITMTTDTSTSTASMELRSLRSDDTAVYYCAFSYYDSSGYFNWGQGTMVTVSS
VL: QAVLTQPSSVSGAPGQRVTVSCTGSSSNIGTGYAVHWYQQLPGTAPRLLIFGNNNRPSGVPDRFSGSKSGTSASLVITGLQAEDEADYYCQSFDTLSGSRVFGGGTKVTVL
notes: phage scFv
In the case of B16, the binding result is “binds”.

B17: N1wc99 (scFv, V domains shown)
VH: QVQLVQSGAEVKKPGASVKVSCKASGYTFTSYGISWVRQAPGQGLEWMGWISAYNGNTNYAQKLQGRVTMTTDTSTSTAYMELRSLRSDDTAVYYCARLASRAFDIWGRGTLVTVSS
VL: QSVLTQPASVSGSPGQSITISCTGTSSDVGGYNYVSWYQQHPGKAPKLMIYEGSKRPSGVSNRFSGSKSGNTASLTISGLQAEDEADYYCSSYTTRSTRVFGGGTKLTVL
notes: phage scFv
For B17, the binding result is “binds”.

B18: N1wc145 (scFv, V domains shown)
VH: EVQLVESGAEVKKPGASVKVSCKASGYTFTTYGISWVRQAPGQGLEWMGWISTYNGNTKYAQKLQGRVTMTTDTSTSTAYMELRSLRSDDTAVYYCARDARKAFDIWGRGTLVTVSS
VL: HVILTQPRSVSGSPGQSITISCTGTSSDVGGYNYVSWYQQHPGKAPKLMIYEGSKRPSGVSNRFSGSKSGNTASLTISGLQAEDEADYYCSSYTTRSTRVFGGGTKLTVL
notes: phage scFv
Turning to B18, the binding result is on record as “binds”.

B19: hN1S3-146 (scFv, V domains shown)
VH: EVQLVQSGPEVKKPGTSVKVSCKASGFTFTSSAVQWVRQARGQRLEWIGWIVVGSGNTNYAQKFQERVTITRDMSTSTAYMELSSLRSEDTAVYYCVADTVYWGKGTLVTVSS
VL: QAVLTQPSSVSEAPRQRVTISCSGSSSNIGKNAVNWYQQLPGKAPKLLIYYDDLMPSGVSDRFSGSKSGTSASLAISGLQSEDEADYFCAAWDDSLSGWVFGGGTKLTVL
notes: phage scFv
Consider B19, for which the binding result was “binds”.

B20: N1wc112 (scFv, V domains shown)
VH: EVQLVESGGGLAQPGKSLRISCAASGFTFGDYAMTWVRQAPGKGLEWVSSISGSGSGTYYTDSVKGRFAISRDNSKNTLYPQMNSLAAEDTAIYFCAKDQTDVTIRDFDYWGRGTLVTVSS
VL: SYELTQPPSVSVAPGQTARISCGGDNLGRKSVHWYQQKPGQAPVLVIYEDSKRPSGIPERFSGSSSGTMATLTISGAQVEDEADYYCYSTDSSGNHRVFGGGTKVTVL
notes: phage scFv
As for B20, the binding result is “binds”.

B21: N1wc33 (scFv, V domains shown)
VH: EVQLVESGGDLVQPGGSLRLSCAASGFTFSDSWMHWVRQVPGKGLEWVSHIGIDGITTNYADSVKGRFTISRDNAKNTLYLQMNNLRAEDTAVYYCARNVGWESRPWGQGTLVTVSS
VL: SYVLTQPPSASGAPGQRVTISCSGSDSNIGRNTVNWYQQQLPGTAPTLLIYTNNQRPSGVPDRFSGSKSGTSASLAISGLQSGDEADYYCAAWDDSLNAYFFGPGTKLTVL
notes: phage scFv
For B21, the binding result is “binds”.

B22: N1wc48 (scFv, V domains shown)
VH: QVQLVQSGAEVKKPGATVKISCKVSGYTFTDYYIHWVQQAPGKGLEWMGLVDPEDGETIYAEKFQGRVTIIADTSTDTAYMELSSLRSEDTAVYYCATGPFRLDSWGQGTMVTVSS
VL: QSVLTQPPSVSGAPGQRVTISCTGSSSNIGAGYDVHWYQQLPGSAPKLLIYGNNNRPSGVPDRFSGSKSGTSASLAITGLQAEDEADYYCQSFDNRLSDFNVFGTGTKVTVL
notes: phage scFv
Turning to B22, the binding result is given as “binds”.
